Measurements from the DeepSol protein solubility set.

Experiment: soluble on expression in E. coli; label from the status in PepcDB or PDB records

Sequence | soluble on expression in E. coli
MSLRGMRIDAYIAEHARKNPDQLALEDGKKSISYSCLDEDINKVASSLDGFEHCKFAILAESGIQYVKILMAVYRSGNIAIPLPIEMQGRSLERILDTACINNIIATKKQYSRFGDGFFERFGTVIVVSDDTSVETLSRRMILERNDPRLRLVLYTSGTTGTPKGVMLSDKNLVSNARSITGILSIGSKDKAALVISPHHAFGNSIINSHLMAGSSIQIGTMNFIDPVFSLIESGVSIFYGVPSTYRILLKYPERFRKAFQNVRTAASAGGAMDRTVVRSIRELSPDTQILPMYGQTEATARLSYLPAEDVDEFIDTIGKAIPGVTLEVFDTENRPVEPGVTGELVARGDNILLGYLNDEAATEKKIIDGWLHTGDLAQKLRCGYIKLLGRKDDLIKIGDHRVNPREIEKEIEMNNEVSSVFVVPVSHELMGNAISLMVIPNERTEIDTIFSFCRKNLPGYLYPREILFIDHLPLSENGKISNRSIIEEYQHVKASEGHHHHHH | soluble
MSLRKHCIAIGGGGWMMGENPSPLYQYILSLSGKENPNICFLPTATGDADEVIERFYNAKLSENVTHFPLFKFDAGWKETLFEQDIIYVGGGNTRSMLAIWREWGIDRILKQCYEQGIIICGMSAGAICWFEFAVTDSDPEAYQVMRCLGLIDGLAAAHFSHVGEKFEVFQAFARSQPSITCYGIHDYAALHFVDGKLLATVTSFPDAGVLVKTGNDENILRGEGHHHHHH | soluble
MSLRKKGPVVLGKFWIYWCEKCNVPLIGDTCSIHGKDSVFKITLTPPGDVRFAFPKDIELIREVFREHYGVDLGELLEGKIVLLNKIPGEDDSYEIIFDGFIFGIISFNPRKLKWKPGLKEEGAKLLWEKFGKSLKKWVIIDRGAVEPVKNGANVLPVGVIEAEESIRRGDEVIVVSEDGEVVGVGIAKKDYNELINPQARGTGVKMKRKSKGSGKRLNGRKATIKDVIKANSAELEKKVREARNFMRSVAEKFKLPVAVAFSGGKDSLAVLGLAMEEFNNFTVFFNNTGIEFPETVEYVMKLREKYKNLNFIIADAGDAFWRAINIFSPPGMDYRWCCKVTKLGPITLAIRKHFPNGVLMFVGQRKFESFKRYKQGRVWKNKWVPNEIGAAPIFHWTALEVWLYIFSRGLEYNPLYEKGIDRIGCFLCPSQSLAEIQRLKEEKPELWEKWYRELEKWRKRLGLPREWIEYGFWRWRRVGRREKVLAKELGVEIPEERSWEVIKFDIKEEEGKYIVRPSTKLNLTRIREVAPILGNVEEGDNYLKAGENIFDKDKNVIISPSLEEAYSSVLLLKRAYECVGCGVCITSCPEEAIELDEKRKKIVVSLEKCTHCRECMNVCPLVVIKGVDNILEGHHHHHH | not soluble
MSLRPARKTVGVALSGGGANGIAQIGVLKALDEERIPVDYIAGTSMGAIIGGLYSCGYSPADLEKIAETLPWQSVLSIREENPRARIFLEQQRIRDRSTIAIRFDKLKLMIPKSLSSAQALTGTLDLLILNGVYHSWQDFNSLPVQFRAVSTDLISGKRITLTSGSLSEAMRASSTIPVLFEPIERDGYRLVDGGLVANLPVDELDVVNASYKIAVDTHGSMYSKSGDLDLPWKAADQAITILTGLQYPAQLEKADEGHHHHHH | soluble
MSLRPVKLAALLPLTGPFAFAGNAGREGFVDGVDYVNEVLGGIAGRKLELIVEDTGYDVAKGTAAFNRVLSRERPDELLFVYGDSTGLSKALAPEIARIGLPYSATSFANELADPEKYPTIFVFGPTYNDMMEALLRQIRLQKGKARIALVYSNTEFGRDPIPYVKERAKALGMEVVHEEVTPPAFTDATPVVLNLRRANPDFVLLQGYALSAEPLILRAAREQGLRAQFMGTYYSAELVLIQRAGPAAEGFTVTYHNPYWYDTLVPAVDEMRKFRQRKGRDSSYRPTYYMGSLAVALGVAEAMRRAAQAGKLTRAGVVEYLEKIGDYNAMGLVRGYQFVNHRIPYTKLYRASVKDGRFNAITDWLKLAEGHHHHHH | soluble
MSLRTVDEKKEQVEKLIQSLDEGVKNFTYNPGRFKALLEMQALMPKYTFRNIMLARIQLPEAQFIASFNRWKELGRNVKKGERSLRILAPRFKKVKDEITGEEETKLIGFLGVPVFDVSQTEGDPLPADRIKLTLDGESQEAVDIFEWVKELAKEDDCPVTIKHADGANGYYSITNHAIVVDSKLSINHRAKTGVHELVHSRVHRNINGTTATERECVAEGVAFIVCSYFGLDTSDYSFEYVNGWSKDGGESLMKYGDIMQKTANLLIEDFERVAEKSQAQAAGEGEKNDSPISAEGHHHHHH | soluble
MSLRVLFCSSEIYPYAKTGGLADFSFCLIKYLKKYGVKVKGVMPYYKTLKAENLRKTDKGVTLNLNGKDYTFEVYESEDCYFLRNDELFGRDYIYGPPGWGYEDNDIRFGGFSRAVSELISTGQLEADVVHANDWQTALIPLFLKEVFKTPVKTVFTIHNLAYQGLFPKETVERVGIPPYLFHMEAVEFWGLVNFMKGGIVFSDLITTVSPTYAKEIQTQEYGYGLEGVLKKYSYKLRGILNGIDYEVWNPEKDKYIYQNYSLRNYSKKFKNKEFLSKELGIEAEKPLISFINRFTHQKGVELILNCAEEMSKLNANFVFLGTGEYENAFLDVSKIYKNFKVFAEFNEGFARKLYASSDFILMPSYFEPCGLTQMIGMRYGCVPIVRKTGGLRDTVKDISEGGYGITFEEPSKETFLCSLKRAIELYENAKKFRNSVKIVMSLDFSCDRMTKEYIECYEEVQSHQEGHHHHHH | soluble
MSLRWEGTEEEAYKAEGTHFSGARRQTLVGRPAGQEAPAFETRYFEVEPGGYTTLERHEHTHVVMVVRGHAEVVLDDRVEPLTPLDCVYIAPHAWHQIHATGANEPLGFLCIVDSDRDREGHHHHHH | not soluble
MSLSDKTMTADEAVSRLRSGMTLGIGGWGSRRKPMALVRALLRSGITDLTVVSCGGPDVGMLAAAGRIRKLVAAFVTLDSIPLEPHYRAARERGALELMEIDEAMFLWGLRAAAGRLPFLPVRAGIGSDVMRVNPGLRTITSPYVDGETFVAMPALRLDAALVHLNRADRLGNGQYLGPDPYFDDLFCEAADTAYVSCERVVDTAELTKEAAPQTLLVKRHTVTGVVEAEGHHHHHH | not soluble
MSLSDYAPGMTGGPTGFEGAERFQYNNTMSEGRAIEGIKALQAAGNAPAKISMLLTDGAIGQITKPFPEGGPSAKEVWERETGIEIDIVGAPAEDIFKKVMQDVTTGGGTFDIYTGPWNSTGDLVSSGGAVNCSDFVAKYQPDWADPERGTPTPEMEKLLYTYAGDYYSFSLDGDFQTWFYLKGLYEDPRVQDAFLSETGVALKTPDTWEEVDRISKFFTGKDFGNGPMYGNGNLMSPFWGLATFYARFASMDFPNYHFFDEDGNPNLNSDLGIQCAEEHVRSFEWCPPDALTFTWAEAYATMWNLQIPHTAIYTNLVKFGDGYNADGTPKSKATGMIGSHLPVGRRFGDQLNRRSVLYYHITAWISSQSQHPEAVYLFLQWLSSTRTYTWMAGNPGGYFDPMQQANFKEPLVASTYHPYAMETIPQTIARSVPSINFAGQTALDNALDEEIQAAITGQKSAREAMDAAQSKWERIIKRQKRNGIVDAIKASRATWPTIVDEGHHHHHH | soluble
MSLSEADTSNAKLADFFAKKGNEPLSEIEMEGVLALMQKSRGVADESSFLGNSSRLLGDISNANASQVLRTGNISTSSALNVPNFKPSTDESRNINAKEVENSTIVSTPLKRKNFDYSSIRSPYRTVIYRFDDSNKKKISSVFDKPESSSQEVDETPKPSNSKPLSNTASALVSLLSDKDAAKESIKPMANPYTSHLTALRKSREDLPSINDKITVPKRRQRSETEDKEEAKITSSNGEAQEDTNIPEGIASRKNEEAQDSFTKYKPMRSSSLRDSVSLAHTESNNEKQMNSPKFVPAPLDKNETKETAKSDLTLTSSDKQSESKPSFSFPVNSTTKSTFMGTKKESTSPAVNSQAVKNVSNNETKEIKPQVHECIYDFGNPTSSGFKKTDIDDTLVSKYRGQFVFEGHHHHHH | soluble
MSLSEEILINITPMESRVAVVENGVLQEVHVERTQRRGIVGNIYKGRVVRVLPGMQAAFVDIGLERAAFIHAAEISNREGSAVESISALVHEGQALVVQVTKDPIGTKGARLTTHLSIPSRYLVYMPRTSHVGISLRIEDEVERERLKKVVADCVAAEGIEGQGGFILRTAAEGAGEDEILADIRYLRRLWDQIAAQIQTVGAPSVIYEDLSLAIRTLRDLVNPRIEKIRIDSRENFQKITSFVEELMPEISDRLEHYPGERPIFDLYGVEDEIQKALERKVLLKSGGYLIVDPTEAMTTIDVNTGAFVGHRNLEETIFKTNLEAATAIARQLRLRNLGGIIIIDFIDMEDEEHRRQVLRTLEKQLERDHAKTNIIGITELGLVQMTRKRTRESLVQILCEPCPCCQGRGMLKTAETTCYEIFREILREARAYQADSYLVLANQKVVDRLLDEESGNVADLEAFIGRTIKFQVEAMYSQEQYDVVLLEGGSHHHHHH | soluble
MSLSEFWKEKHGEREQDHEKTIMDGYSVANRFDGTGGGWGYSANSVEAIQFKVSKEIRLVGVGLYGGRGEYISKLKLYRQIGTEADELYVEQITETDETVYDCGAHETATMLFSQPIVIQPNHWHVVSAKISGPSSDCGANGKRHVECDGVTFQFRKSAVSNNGTDVDVGQIPELYYQIVGGSESRDESDSNKQLSISREGHHHHHH | soluble
MSLSERTYFPPAEEGELSKVESFLAVYKDRHGTEARPQFFLSGSNEGEQIPLPKELYEILVRTVEALASGKAVTIHPNDPLVTTQQAAELLGVSRPTVVKLIEDGKLEATKVTRHRRIKLEDVLRYQERQTIEQLDFLASTTSDAPALTESEYVSVRKMLANKRKESRIG | not soluble
MSLSETSRQLSGRFLHVTDFHLDTHYRKGTSEETLCHRDSGSAGRLGAEGSDCDSPQALIDETFRWIEKNLKGKIDFVLWTGDSARHDNDEKIPRTASEIIDLNKALAAKFIEVFEDSGAARGLSIPVIPTIGNNDIMPHNIFREAPNRWTRKFTEVWSEFIPEAQRHTFEEGGWFSAELIPNKLAALSLNTMYFYESNSAVDGCAMPSEPGFEHMEWLRVQLEILRQRGMKAILIGHVPPARSGSKRSWDESCWQKYTLFMNRFRDVVVGSVYGHMNVDHFMLQDSHDVDIVAASEDSSSDPGFSVQSRTDYLASLREEWDSMPSPPGGDSSDILLSDDWNLDALGKKEREGHHHHHH | soluble
MSLSEYRRKRSFDKTREPEPGKTLPPGQRAIFVVQLHHASRRHYDFRLQVGDALKSWAVPKGPSYDPKVKRMAVEVEDHPVDYASFEGEIPRGEYGGGHVAQFDHGVWATAGDPEAQLAKGHLRFELFGNKLKGGWHLVRSGKPARQPQWLLFKEDDAYAGLEHHHHHH | soluble
MSLSGIYERLQSLESLDLKSLDKNRTMLLIVDINKGFAKEGALYSDRIEKLISPISNLANYALNSGIRVKAFTDYHTEDSIELKAYPKHCMKDTDEWELVDELNLEGIEVIKKNSTNGFLEENFILNKEEIDNVIIVGDCTDICIYQLAISLRAEFNRVNKDGEIYVPKKLVDTFDMPMHKANFMNYVFLNSMLDNGVKVIEDIILDEGHHHHHH | soluble
MSLSGRYNMNIILGATGQVGSMLVDNLLGKGQPVRAVVRDGLKAQGLKNKGVEVKIADYLDVEALKKAFQGGSSVFLLTPENPESENFINEIQRIMSNYREAVLSSGISKIVGLSSMGAQHKSGTGNLMASYMLEHAFSDLEIEQVFVRPAYYFSNWLGYLELVREYGILPTFFPPELELPMIAPPDVAGFLSDVMTCKTQQERIYEISGPHDYSSSDIAKIFGDVLNKNVTLQQVLPEEWENTLIQAGFSKDGTRNLMLMTKAVIDGKTKNETTNRLRFSTNFKNYLQSVILNMSEGHHHHHH | soluble
MSLSGTDIHTSDYYFLFEEKFRGSRELVKARLRRYIPYFKGCRRVLDIGCGRGEFLELCKEEGIESIGVDINEDMIKFCEGKFNVVKSDAIEYLKSLPDKYLDGVMISHFVEHLDPERLFELLSLCYSKMKYSSYIVIESPNPTSLYSLINFYIDPTHKKPVHPETLKFILEYLGFRDVKIEFFEECEELTKLAKIDSNTVSEEVIRVINENIEKLNRILFGPQDYAIIAKKEGHHHHHH | soluble
